Assay results from the supplement of paper PMC12764529.
± gives the half width of the 95% confidence interval.

test: folding stability dG unfold from trypsin proteolysis; higher = more stable
Summary of the method: (§1)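 Unfolding free energy was derived, per protease or combined, by relating Bayesian-fitted K50 values from sequencing counts to a sequence-predicted unfolded-state K50 and a shared folded-state K50. The underlying digests exposed cysteine-free mini-proteins under 80 residues, in a PA-tagged cDNA display construct, to trypsin and chymotrypsin at 11 threefold-diluted concentrations and to a no-protease condition. A filter kept only designs with AlphaFold2 dimer inter-PAE above 15.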

Sequence	folding stability dG unfold
SAGGSAGGMTVDPENPVVYYPGSDGKAQTYPLSPDSSLKLPDGKVVTVTPVPEGSVSVSVSPVESAGGSAGG [r6_296_JUSTAS]	0.571 ± 0.03 kcal/mol
SMYDIVITVPSPEDVKALEEAFKELGVEEIEVERLPEERYRIVIKTKGSVEEIVEAIRKIAEENGLEIEPSA [r9_1003_TrMRF]	3.36 ± 0.18 kcal/mol
SAGGSAGGSAGKIEIYPNDNQYYIKITVPRRNPNNGKWERQERTIPMPPDQAKELLKNGISAGGSAGGSAGG [r11_389_TrROS]	0.0667 ± 0.14 kcal/mol
SAGGSAGGSDPNNEPVYIMMKFEIEIKVERDPENGKPKAEDPITITFIIRIPPNGNLEIGIMISAGGSAGGS [r12_438_TrROS]	3.52 ± 0.11 kcal/mol
SAGGSAGGSAGFKSVTIGSGTGGLTLTITDVTTGKNTVVNATSLEEAEKIGKEKGWKIILSSAGGSAGGSAG [r3_67_JUSTAS]	0.604 ± 0.07 kcal/mol
SAGGSAGGSAGMKIEIELDENGELRIRITVYNKETKEEVEEFEFTLPLEELEEELRKLLESAGGSAGGSAGG [r11_376_TrROS_Hall]	3.16 ± 0.12 kcal/mol
SLEVAAELGLSVSSLEELETDPEKGTRLLRLTAPTPGATVEVLVEVTTRKDSKGETVPEVRVLAVRTVAPSA [r9_613_JUSTAS]	1.15 ± 0.03 kcal/mol
SAGGSAGGSAGDDNDGKKKFPMTIKIPPIPIEIPPGMKITSWIPIRIPGGLEFPIIYITPSAGGSAGGSAGG [r11_388_TrROS]	0.923 ± 0.045 kcal/mol
SAGSASSIKPISSTLDVRTDPETGKPVKATVYTYVLPSDGSSKQVPVPLSKKEPINLSPSDSYVTETRESAG [r5_950_JUSTAS]	-0.586 ± 0.17 kcal/mol
SAGGSAMTLEEARELVERLVRELFPDAEVLDVDAVRLPDRLVLVDAVVRPKYRPDEVLRFRFLLGDSAGGSA [r15_627_TrMRF]	3.53 ± 0.1 kcal/mol
SAGGSAKLSAEEIAKLLKKLFPEVKEIKVKVEVNGKLYEVKIKVEKVKKKEKKKVEGMSEEEKKKLSAGGSA [r15_156_TrROS_Hall]	2.06 ± 0.19 kcal/mol
SAGGGLPASDPDVTATTETFTVTYTEATPEGNPVTTTTTTTVTTYTAPDGAVTTTTTTTSTTVTPASTSAGG [r13_51_JUSTAS]	1.7 ± 0.062 kcal/mol
SAGGMTAEEIAEALRERLRELFPPGAEIEVDEIEVEEVEVEEEPVELSEEERERVEKMPEEERERLLSAGGS [r16_272_TrROS_Hall]	1.27 ± 0.22 kcal/mol
SAGGVNPTDPAQATTTETTPSLVTLPNGEKVLVTTTTTTTPDGSTTTTTTTTNAATGATTSTTTTTASAGGS [r8_252_JUSTAS]	1.97 ± 0.14 kcal/mol
SMEPGERYRITATRKDGSRVEVEAIPGGVLRARVYLPNGELVGEAEFPVDRPVELLEALGLDELVSVEPESA [r9_1107_TrMRF]	2.17 ± 0.051 kcal/mol
SAGGSAGGSGEELRNLLANVKKVTVFPNADGGLGVLIELEPEEPEERTIVLNYDQLAELLALGSAGGSAGGS [r12_466_TrMRF]	0.916 ± 0.026 kcal/mol

Sequence	folding stability dG unfold
SAGGSVRVETEFERLPDGPIVVRVRITLPNGETLEFTAVYYPEPSGIPMFVPEPVPPNAIEGIDIKVSAGGS [r16_95_TrMRF]	2.55 ± 0.09 kcal/mol
SAGGSAGGSAMTPQVIKVTLYKPATGDVRTVVVLDPVPNTSLDEVAAALPSDYVVAKVEVGSAGGSAGGSAG [r3_80_TrMRF]	0.166 ± 0.079 kcal/mol
SAGGMITLEIELEDGTKIKIEITRLVSYDEEKGYAIFEAKITVEKDGKKFEKTITIIVKKGTKPGEIISAGG [r13_823_TrROS_Hall]	4.45 ± 0.43 kcal/mol
SAGSSTTLTFPVDTKIPDEKGNPLSSSTVTVTVNPSPGKVTATLTDPATGTVTTVEFGSLEKVEAFLSSSAG [r14_508_JUSTAS]	1.29 ± 0.042 kcal/mol
SAGSGVILRTPEGKYVPLSALSEEEIKTAIEDPLSPAPPVTVEVTVTSVRLPVPRTVTTTEVVVTVLGSAGG [r19_232_JUSTAS]	-0.00526 ± 0.21 kcal/mol
SAGGSAGGEMTAEELAEKLAEELKEKGYEVEVEVVEVEVEEDTVRIKIKLKDGRELEIELKIEPSAGGSAGG [r6_617_TrROS_Hall]	2.58 ± 0.16 kcal/mol
SWQIKEVFPLPNGMRIKVYIHPDGYVQVSIRMYRPNPNDGKPQRQRFSITVPLPPGKPPSIDDILDYILNSA [r9_614_TrROS]	2.36 ± 0.051 kcal/mol
SAEVEVLPFEFELPNGLRVEVHLVRLPDGTVVAPVLLVEYDPVTGEPRLSRAVAVFDPSTGKVTVLPLDSAG [r14_324_TrMRF]	3.01 ± 0.047 kcal/mol
SAGGVDKGPPDAEVSREVLPRKLPNGKELLEEIRTRVLASGSLLVDRTIRDPNSDKVESEELVDPGASAGGS [r8_129_JUSTAS]	0.021 ± 0.31 kcal/mol
SAGASVEQWSLTSVEVTELPGPEVVVPMTARLPDGTEVVMSGVVGPGSVTLTSPDGSTSTLAIPPALASAGG [r19_84_JUSTAS]	1.2 ± 0.023 kcal/mol
SEAKTMSPEELKEFIEEYIEEERKKNPGKPVRIAIEDLKEKFPGFSPEELKKLLGLSEEELENGAIEIEPSA [r9_525_TrMRF]	1.81 ± 0.087 kcal/mol
SAGGSAGGSAGGMVIKITTESGEKIEIEVPEEDEEKVKELVKELEKAGFKVKKVEVFEPSAGGSAGGSAGGS [r10_231_TrROS_Hall]	1.6 ± 0.11 kcal/mol
SAGGSAGGSAGGSTRDFLVKDPSNGQWYKVTATTDPAGAVTITFPETGEVVPLEGLVVSPSAGGSAGGSAGG [r11_301_JUSTAS]	1.47 ± 0.046 kcal/mol
SAGGSAGGSGSMKVYTHNVPPGQELTITITRGSSSTTLTFPPNTTVTITVPTSSPATITLTAPSAGGSAGGS [r12_550_JUSTAS]	1.39 ± 0.031 kcal/mol
SAGGSAGGSAKKKKYKVKIKVINENGEIYEIDEIYFDEKTKKIYIKIKNKDGEEKVFEIELDSAGGSAGGSA [r18_370_TrROS_Hall]	2.4 ± 0.059 kcal/mol

test: folding stability dG unfold from chymotrypsin proteolysis; higher = more stable
Summary of the method: as §1

Sequence	folding stability dG unfold
SAGGSAGGMTVDPENPVVYYPGSDGKAQTYPLSPDSSLKLPDGKVVTVTPVPEGSVSVSVSPVESAGGSAGG [r6_296_JUSTAS]	1.249 ± 0.011 kcal/mol
SMYDIVITVPSPEDVKALEEAFKELGVEEIEVERLPEERYRIVIKTKGSVEEIVEAIRKIAEENGLEIEPSA [r9_1003_TrMRF]	3.89 ± 0.19 kcal/mol
SAGGSAGGSAGKIEIYPNDNQYYIKITVPRRNPNNGKWERQERTIPMPPDQAKELLKNGISAGGSAGGSAGG [r11_389_TrROS]	-0.439 ± 0.45 kcal/mol
SAGGSAGGSDPNNEPVYIMMKFEIEIKVERDPENGKPKAEDPITITFIIRIPPNGNLEIGIMISAGGSAGGS [r12_438_TrROS]	4.33 ± 0.13 kcal/mol
SAGGSAGGSAGFKSVTIGSGTGGLTLTITDVTTGKNTVVNATSLEEAEKIGKEKGWKIILSSAGGSAGGSAG [r3_67_JUSTAS]	-0.281 ± 0.4 kcal/mol
SAGGSAGGSAGMKIEIELDENGELRIRITVYNKETKEEVEEFEFTLPLEELEEELRKLLESAGGSAGGSAGG [r11_376_TrROS_Hall]	3.62 ± 0.15 kcal/mol
SLEVAAELGLSVSSLEELETDPEKGTRLLRLTAPTPGATVEVLVEVTTRKDSKGETVPEVRVLAVRTVAPSA [r9_613_JUSTAS]	1.33 ± 0.077 kcal/mol
SAGGSAGGSAGDDNDGKKKFPMTIKIPPIPIEIPPGMKITSWIPIRIPGGLEFPIIYITPSAGGSAGGSAGG [r11_388_TrROS]	1.1 ± 0.12 kcal/mol
SAGSASSIKPISSTLDVRTDPETGKPVKATVYTYVLPSDGSSKQVPVPLSKKEPINLSPSDSYVTETRESAG [r5_950_JUSTAS]	-0.274 ± 0.27 kcal/mol
SAGGSAMTLEEARELVERLVRELFPDAEVLDVDAVRLPDRLVLVDAVVRPKYRPDEVLRFRFLLGDSAGGSA [r15_627_TrMRF]	4.106 ± 0.032 kcal/mol
SAGGSAKLSAEEIAKLLKKLFPEVKEIKVKVEVNGKLYEVKIKVEKVKKKEKKKVEGMSEEEKKKLSAGGSA [r15_156_TrROS_Hall]	2.33 ± 0.1 kcal/mol
SAGGGLPASDPDVTATTETFTVTYTEATPEGNPVTTTTTTTVTTYTAPDGAVTTTTTTTSTTVTPASTSAGG [r13_51_JUSTAS]	1.77 ± 0.023 kcal/mol
SAGGMTAEEIAEALRERLRELFPPGAEIEVDEIEVEEVEVEEEPVELSEEERERVEKMPEEERERLLSAGGS [r16_272_TrROS_Hall]	-0.0968 ± 0.18 kcal/mol
SAGGVNPTDPAQATTTETTPSLVTLPNGEKVLVTTTTTTTPDGSTTTTTTTTNAATGATTSTTTTTASAGGS [r8_252_JUSTAS]	2.39 ± 0.14 kcal/mol
SMEPGERYRITATRKDGSRVEVEAIPGGVLRARVYLPNGELVGEAEFPVDRPVELLEALGLDELVSVEPESA [r9_1107_TrMRF]	2.42 ± 0.043 kcal/mol
